Adhesion rate to DF-1 cells of yeast cells displaying EtSERPIN1 that were pre-incubated with recombinant GgANXA2 protein (PBS group: 26.75%) data for one substance are collected here from publication PMC12243203.

This assay deals with recombinant His-EtSERPIN1 protein (Eimeria tenella).

For the substance “recombinant His-tag GgANXA2 protein (from UniProt P17785 1-339) (natural protein)”, the adhesion rate to DF-1 cells of yeast cells displaying EtSERPIN1 that were pre-incubated with recombinant GgANXA2 protein (PBS group: 26.75%) was 44.3%.
